Reference: article PMC9352680, “A comprehensive thermodynamic model for RNA binding by the Saccharomyces cerevisiae Pumilio protein PUF4”

T1: PUF4 RNA-binding domain (Saccharomyces cerevisiae, UniProt P25339 537-888)
T1 sequence: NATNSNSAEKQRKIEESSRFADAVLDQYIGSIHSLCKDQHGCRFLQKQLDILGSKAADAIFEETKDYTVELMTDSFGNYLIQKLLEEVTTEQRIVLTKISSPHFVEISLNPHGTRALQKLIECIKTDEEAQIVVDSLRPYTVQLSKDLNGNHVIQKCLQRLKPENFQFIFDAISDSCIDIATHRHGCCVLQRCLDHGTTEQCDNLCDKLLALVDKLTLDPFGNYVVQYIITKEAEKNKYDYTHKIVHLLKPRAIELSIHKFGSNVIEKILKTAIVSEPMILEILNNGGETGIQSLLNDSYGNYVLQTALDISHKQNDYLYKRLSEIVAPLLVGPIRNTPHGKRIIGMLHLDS

B1: Ic_S1_P5E.1_K5.1_C5.1_H5.1_A5.1_[T6C]_[A7C]_F5.1_[T8A]_[T9G]_[A10C]_T5.1 (ssRNA)
RNA: UCUCUUUGUAUCCAGCUCUCUU
B2: Ic_S1_P5E.1_K5.1_C5.1_H5.1_A5.1_[T6G]_F5.1_[T8C]_[T9C]_[A10C]_T5.1 (ssRNA)
RNA: UCUCUUUGUAUGACCCUCUCUU
B3: Ic_S1_P5E.1_K5.1_C5.1_H5.1_A5.1_[T6A]_[A7T]_F5.1_[T8A]_[T9C]_[A10G]_T5.1 (ssRNA)
RNA: UCUCUUUGUAUAUACGUCUCUU
B4: Ic_S1_P5E.1_K5.1_C5.1_H5.1_A5.1_[T5A]_[A7T]_F5.1_[T8C]_[T9A]_[A10C]_T5.1 (ssRNA)
RNA: UCUCUUUGUAAUUCACUCUCUU
B5: Ic_S1_P5E.1_K5.1_C5.1_H5.1_A5.1_[T5G]_[T6C]_[A7C]_F5.1_[T8C]_[T9A]_T5.1 (ssRNA)
RNA: UCUCUUUGUAGCCCAAUCUCUU
B6: Ib_S1_P3E.1_K3.1_C3.1_H3.1_[T1G]_A3.1_[T5C]_F3.1_T3.1 (ssRNA)
RNA: UCUCUUGGUACAUAUCUCUU
B7: Ic_S1_P5E.1_K5.1_C5.1_H5.1_A5.1_[T5C]_[T6G]_[A7T]_F5.1_[T9C]_T5.1 (ssRNA)
RNA: UCUCUUUGUACGUUCAUCUCUU
B8: Ic_S1_P5E.1_K5.1_C5.1_H5.1_A5.1_[T5C]_[T6C]_[A7T]_F5.1_[T8A]_[A10T]_T5.1 (ssRNA)
RNA: UCUCUUUGUACCUAUUUCUCUU
B9: Ic_S1_P5E.1_K5.1_C5.1_H5.1_A5.1_[T5A]_[T6C]_F5.1_[T8C]_[T9C]_T5.1 (ssRNA)
RNA: UCUCUUUGUAACACCAUCUCUU
B10: Ic_S1_P5E.1_K5.1_C5.1_H5.1_A5.1_[T5G]_F5.1_[T8C]_[T9C]_[A10T]_T5.1 (ssRNA)
RNA: UCUCUUUGUAGUACCUUCUCUU
B11: Ic_S1_P5E.1_K5.1_C5.1_H5.1_A5.1_[T5C]_[T6C]_F5.1_[T8G]_[T9C]_[A10G]_T5.1 (ssRNA)
RNA: UCUCUUUGUACCAGCGUCUCUU
B12: Ic_S1_P5E.1_K5.1_C5.1_H5.1_A5.1_[T5G]_[T6C]_[A7C]_F5.1_[T9C]_T5.1 (ssRNA)
RNA: UCUCUUUGUAGCCUCAUCUCUU
B13: Ic_S1_P5E.1_K5.1_C5.1_H5.1_A5.1_[T5C]_[T6C]_[A7T]_F5.1_[T8A]_[T9G]_[A10C]_T5.1 (ssRNA)
RNA: UCUCUUUGUACCUAGCUCUCUU
B14: Ic_S1_P5E.1_K5.1_C5.1_H5.1_A5.1_[T5C]_[A7C]_F5.1_[T8A]_[A10T]_T5.1 (ssRNA)
RNA: UCUCUUUGUACUCAUUUCUCUU
B15: Ic_S1_P5E.1_K5.1_C5.1_H5.1_A5.1_[T5A]_[T6A]_[A7T]_F5.1_[T8A]_[T9C]_[A10T]_T5.1 (ssRNA)
RNA: UCUCUUUGUAAAUACUUCUCUU
B16: Ic_S1_P5E.1_K5.1_C5.1_H5.1_A5.1_[T5A]_[T6C]_[A7C]_F5.1_[T8G]_[T9G]_[A10T]_T5.1 (ssRNA)
RNA: UCUCUUUGUAACCGGUUCUCUU
B17: Ic_S1_P5E.1_K5.1_C5.1_H5.1_A5.1_[T5A]_F5.1_[T9G]_[A10G]_T5.1 (ssRNA)
RNA: UCUCUUUGUAAUAUGGUCUCUU
B18: Ic_S1_P5E.1_K5.1_C5.1_H5.1_A5.1_[T5C]_[A7C]_F5.1_[T9A]_[A10C]_T5.1 (ssRNA)
RNA: UCUCUUUGUACUCUACUCUCUU
B19: Ic_S1_P5E.1_K5.1_C5.1_H5.1_A5.1_[T5C]_[A7T]_F5.1_[T8G]_[A10T]_T5.1 (ssRNA)
RNA: UCUCUUUGUACUUGUUUCUCUU
B20: Ib_S1_P3E.1_K3.1_C3.1_H3.1_[T3A]_[A4C]_A3.1_F3.1_T3.1 (ssRNA)
RNA: UCUCUUUGACUAUAUCUCUU
B21: Ic_S1_P5E.1_K5.1_C5.1_H5.1_A5.1_[T6C]_[A7T]_F5.1_[T9C]_[A10C]_T5.1 (ssRNA)
RNA: UCUCUUUGUAUCUUCCUCUCUU
B22: Ic_S1_P5E.1_K5.1_C5.1_H5.1_A5.1_[T5C]_[A7C]_F5.1_[A10T]_T5.1 (ssRNA)
RNA: UCUCUUUGUACUCUUUUCUCUU
B23: Ic_S1_P5E.1_K5.1_C5.1_H5.1_A5.1_[T5C]_[T6G]_[A7T]_F5.1_[T8G]_[T9C]_[A10T]_T5.1 (ssRNA)
RNA: UCUCUUUGUACGUGCUUCUCUU
B24: Ic_S1_P5E.1_K5.1_C5.1_H5.1_A5.1_[T5G]_[T6C]_[A7T]_F5.1_[T9A]_[A10C]_T5.1 (ssRNA)
RNA: UCUCUUUGUAGCUUACUCUCUU
B25: Ib_S1_P3E.1_K3.1_C3.1_H3.1_[T1G]_A3.1_[A6G]_F3.1_T3.1 (ssRNA)
RNA: UCUCUUGGUAUGUAUCUCUU
B26: Ic_S1_P5E.1_K5.1_C5.1_H5.1_A5.1_[T6A]_[A7T]_F5.1_[T8C]_[T9A]_[A10G]_T5.1 (ssRNA)
RNA: UCUCUUUGUAUAUCAGUCUCUU
B27: Ic_S1_P5E.1_K5.1_C5.1_H5.1_A5.1_[T5G]_[T6C]_[A7G]_F5.1_[T9A]_T5.1 (ssRNA)
RNA: UCUCUUUGUAGCGUAAUCUCUU
B28: Ic_S1_P5E.1_K5.1_C5.1_H5.1_A5.1_[T5C]_[T6A]_F5.1_[T8A]_[T9A]_[A10C]_T5.1 (ssRNA)
RNA: UCUCUUUGUACAAAACUCUCUU
B29: Ic_S1_P5E.1_K5.1_C5.1_H5.1_A5.1_[T5G]_[T6C]_[A7T]_F5.1_[T8G]_[T9G]_[A10T]_T5.1 (ssRNA)
RNA: UCUCUUUGUAGCUGGUUCUCUU
B30: Ib_S1_P3E.1_K3.1_C3.1_H3.1_[T1A]_A3.1_[T5C]_F3.1_T3.1 (ssRNA)
RNA: UCUCUUAGUACAUAUCUCUU
B31: Ic_S1_P5E.1_K5.1_C5.1_H5.1_A5.1_[T5G]_[T6C]_F5.1_[T8C]_[A10T]_T5.1 (ssRNA)
RNA: UCUCUUUGUAGCACUUUCUCUU
B32: Ic_S1_P5E.1_K5.1_C5.1_H5.1_A5.1_[T5A]_[A7C]_F5.1_[T8C]_[T9G]_[A10C]_T5.1 (ssRNA)
RNA: UCUCUUUGUAAUCCGCUCUCUU

target: T1, PUF4 RNA-binding domain; assay: Mg; RNA-MaP; 20 mM Na-HEPES pH 7.4, 30 mM KOAc, 0.75 mM MgCl2, 0.1% Tween-20, 5% glycerol, 0.1 mg/mL BSA, 2 mM DTT; 25 C; 0.0125-409.6 nM protein; settings: tags: N-His6-TEV cleaved; C-SNAP kept, Cy3B-labelled; label: tethered on chip by stalled RNA polymerase

Q: Which Kd does the source give for B1 here?
A: 1300 nM

Q: For B2, which Kd is on record?
A: 2180 nM

Q: With B3 as the binder, how does the Kd read?
A: 14.9 nM

Q: Which Kd does the source give for B4 here?
A: 734 nM

Q: With B5 as the binder, how does the Kd read?
A: > 2300 nM

Q: Which Kd does the source give for B6 here?
A: 1550 nM

Q: Which Kd does the source give for B7 here?
A: 51.8 nM

Q: How did the Kd turn out when B8 was run?
A: 48.7 nM

Q: For B9, which Kd is on record?
A: 111 nM

Q: For B10, which Kd is on record?
A: > 2300 nM

Q: B11 was tested. Which Kd did it give?
A: 1180 nM

Q: Which Kd does the source give for B12 here?
A: 721 nM

Q: B13 was tested. Which Kd did it give?
A: 114 nM

Q: B14 was tested. Which Kd did it give?
A: 119 nM

Q: For B15, which Kd is on record?
A: 37.4 nM

Q: How did the Kd turn out when B16 was run?
A: > 2300 nM

Q: With B17 as the binder, how does the Kd read?
A: 10.1 nM

Q: B18 was tested. Which Kd did it give?
A: 4.81 nM

Q: For B19, which Kd is on record?
A: 87.4 nM

Q: B20 was tested. Which Kd did it give?
A: > 2300 nM

Q: Which Kd does the source give for B21 here?
A: 74.7 nM

Q: For B22, which Kd is on record?
A: 23.1 nM

Q: B23 was tested. Which Kd did it give?
A: 297 nM

Q: Which Kd does the source give for B24 here?
A: 19.2 nM

Q: Which Kd does the source give for B25 here?
A: 723 nM

Q: With B26 as the binder, how does the Kd read?
A: 4.58 nM

Q: How did the Kd turn out when B27 was run?
A: 300 nM

Q: Which Kd does the source give for B28 here?
A: 45.2 nM

Q: B29 was tested. Which Kd did it give?
A: > 2300 nM

Q: For B30, which Kd is on record?
A: 1760 nM

Q: B31 was tested. Which Kd did it give?
A: 1000 nM

Q: With B32 as the binder, how does the Kd read?
A: 1660 nM
